These results are taken from patent US20190224291A1 (GENOIMMUNE THERAPEUTICS, published 2019).

Assay [1] concerns the target T1, HLA-A0201 on T2 cells (human).
T1 construct: MHC class I on TAP-deficient T2 cells; also called HLA-A2; HLA-A0201 molecule
Kind of assay: T2 cell peptide binding assay, flow cytometry with FITC anti-HLA-A0201, peptide 100 uM. Background: A flow cytometer gives signals particle by particle.
Procedure: (§1) Cells were collected by centrifugation of the cell culture at 200 g for 5 minutes. The collected cells were washed twice with PBS, and then directly incubated with FITC-conjugated anti-HLA-A0201 monoclonal antibody at 4° C. for 30 minutes. The mean fluorescence intensity (MFI) was then detected and analyzed by flow cytometer (BD FACSJazz™) and its software. The fluorescence index (FI) was calculated by using the following formula:

For assay [2], the target named is T1, HLA-A0201 on T2 cells. Kind of assay: T2 cell peptide binding assay, fluorescence index = (MFI sample - MFI background)/MFI background, peptide 100 uM.
Procedure: as §1

B1: wild-type peptide FMVDGSWSI (peptide)
peptide: FMVDGSWSI
notes: Synthetic peptide, purity >90%
In the assay with HLA-A0201 on T2 cells [1], B1 showed an Average fluorescence intensity of 772. This molecule also showed an FI with HLA-A0201 on T2 cells [2] of 2.38.

B2: variant peptide FMVDGFWSV (peptide)
peptide: FMVDGFWSV
notes: Synthetic peptide
Molecule B2 had an Average fluorescence intensity in the assay with HLA-A0201 on T2 cells [1] of 721. In the assay with HLA-A0201 on T2 cells [2], this molecule had an FI of 2.16.

B3: variant peptide FLVDGFWSI (peptide)
peptide: FLVDGFWSI
notes: Synthetic peptide
In the assay with HLA-A0201 on T2 cells [1], B3 showed an Average fluorescence intensity of 701. The molecule further gave an FI with HLA-A0201 on T2 cells [2] of 2.07.

B4: variant peptide FMVDGFWSL (peptide)
peptide: FMVDGFWSL
notes: Synthetic peptide
B4: in the assay with HLA-A0201 on T2 cells [1], the Average fluorescence intensity worked out at 748. For the same molecule, the FI with HLA-A0201 on T2 cells [2] worked out at 2.28.

B5: variant peptide FLVDGFWSV (peptide)
peptide: FLVDGFWSV
notes: Synthetic peptide
As to B5, the Average fluorescence intensity in the assay with HLA-A0201 on T2 cells [1] is 642. Besides, the FI with HLA-A0201 on T2 cells [2] was found to be 1.81.

B6: variant peptide FLVDGFWSL (peptide)
peptide: FLVDGFWSL
notes: Synthetic peptide
With B6, the Average fluorescence intensity with HLA-A0201 on T2 cells [1] amounted to 664. Besides, in the assay with HLA-A0201 on T2 cells [2], the FI was 1.91.
